Assay: yeast display, Sf9 membrane polyspecificity reagent, FACS + sequencing; frameworks hold sequencing errors
How it was run: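 Polyreactivity labels are assigned by the sorting gate from which each nanobody was recovered. The gates were low and high (top ~1%), set on anti-HA fluorescence for expression and streptavidin fluorescence for reagent binding. Before sorting, galactose-induced (36–48 hours) yeast display cells were stained for 1 hour at 4 °C with 10% biotinylated, detergent-solubilized Sf9 membrane reagent.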

| Sequence | polyreactivity (PSR sort gate) |
| --- | --- |
| QVQLVESGGGLVQAGGSLRLSCAASGSIFKYNDMGWYRQAPGKERELVAAISWRGGRTYYADSVKGRFTISRDNAKNTVYLQMNSLKPEDTAVYYCNVVLDNRRGTYSYYYWGQGTQVTVSS | high polyreactivity |
| QVQLVESGGGLVQAGGSLRLSCAASGSIFKYNDMGWYRQAPGKEREWVAAIRLGGGSTSYADSVKGRFTISRDNAKNTVYLQMNSLKPEDTAVYYCNAYAVYLRYLWYDYWGQGTQVTVSS | low polyreactivity |
| QVQLVESGGGLVQAGGSLRLSCAASGSIFKYNTMGWYREAPGKESELVAAINGGGSTYYADSVKGRFTISRDNAKNTVYVTMNCLNPEDTAVYYCAKVQRTRGWSLDYWGHGTQVTVSS | high polyreactivity |
| QVQLVESGGGLVQAGGSLRLSCAASGSIFKYYAMGGYRQAPGTERELVAAITQRGGSTYYADSVKGRFTISRDNAKNTGYLQMNRLNPEDTAVYYCNRYSLTAWYYRHGYYYWGQGTQVTVSS | high polyreactivity |
| QVQLVESGGGLVQAGGSLRLSCAASGSIFKYYAMGWYRQAPGKERELVAAISRSGTSTYYADSVKGRFTISRDNAKNTVYLQMNSLKPEDTAVYYCAARLSYYSRMNYWGQGTQVTVSS | high polyreactivity |
| QVQLVESGGGLVQAGGSLRLSCAASGSIFKYYAMGWYRQAPGKERELVAAISSGGSTKYADSVKGRFTISRDNAKNTVYLQMNSLKPEDTAVYYCAARDPSRHARRAYDYWGEGTQVTVSS | low polyreactivity |
| QVQLVESGGGLVQAGGSLRLSCAASGSIFKYYAMGWYRQAPGKERQLVAVITSGGSTYYADSVKGRFTISRDNAKNTVYLQMNSLKPEDTAVYYCAAGVRAYNWGEYDYWGLGTQVTVSS | low polyreactivity |
| QVQLVESGGGLVQAGGSLRLSCAASGSIFKYYSMGWYRQAPGKERELVAAITIGGNTNYADSVKGRFTISRDNAKNTVYLQLNSLKPEDTAVYYCATGGYYSAIVYGGYDYWGQGTQVTVSS | low polyreactivity |
| QVQLVESGGGLVQAGGSLRLSCAASGSIFLAYAMGWYRQAPGKEREFVAAISFSDGSTYYADSVKGRFTISRDNAKNTVYLQMNSLKPEETAVYYCNKGASPDDYDYWGQGTQVTVSS | low polyreactivity |
| QVQLVESGGGLVQAGGSLRLSCAASGSIFLEYAMGWYRQAPGKERELVAAISSSGGSTYYADSVKGRFTISRDNAKNTVYLQMNSLKPEDTAVYYCAAGKSKYGVRGYYWGQGTQVTVSS | high polyreactivity |
| QVQLVESGGGLVQAGGSLRLSCAASGSIFLFNAMGWYRQAPGKERELVAAINRDDSTYYADSVKGRFTISRDNAKNTVYLQMNSLKPEDTAVYYCAARQRLSWKTEYYWGQGTQVTVSS | low polyreactivity |
| QVQLVESGGGLVQAGGSLRLSCAASGSIFLKNAMGWYRQAPGKERELVAAITPGGSTYYADSVKGRFTISRDNAKNTVYFQMNSLKPEDSAVYHCAARPGGGKYRGYYYWGQGTQVTVSS | high polyreactivity |
| QVQLVESGGGLVQAGGSLRLSCAASGSIFLKYAMGWYRQAPGKERELVATISRGGITYYADSVKGRFTISRDNAKNTVYLQMNSLKPEDTAVYYCATTGGRQYGYWGQGTQVTVSS | high polyreactivity |
| QVQLVESGGGLVQAGGSLRLSCAASGSIFLLYAMGWYRQAPGKERELVAAIRWSGARTYYADSVKGRFTISRDKAKNTVYLQMNSLKPDDTAVYYCAADYVVDDIYWWEGDYWGQGTQVTVSS | high polyreactivity |
| QVQLVESGGGLVQAGGSLRLSCAASGSIFLLYARGWYRQAPGKERELVAAISRGGSTYYADSVKGRFTISRDNAKNTVYLQMNSLKPEDTAVYYCAAKLYYGYDWGQGTQVTVSS | low polyreactivity |
| QVQLVESGGGLVQAGGSLRLSCAASGSIFLNNAMGWYRQAPGKERELVAAITRNVGSTYYADSVKGRFTISRDNEKNTVYLQMNSLKPEDTAVYYCAADRRRRYDYWGQGTQVTVSS | low polyreactivity |
| QVQLVESGGGLVQAGGSLRLSCAASGSIFLPNAMGWYRQAPGKEWELVAAISWSGGSTYADSVKGRFTISRDNAKNTVYLQMNSLKPEDTAVYYCAADDGFTPRDLYVGYDYWGLGTQVTVSS | low polyreactivity |
| QVQLVESGGGLVQAGGSLRLSCAASGSIFLQNAMGWYRQAPGKERELVAAITNGGSTNYADSVKGRFTISRDNAKNTVYLQMNSLKPEDTAVYYCAAERAILSSDKQSLWRFDYWGQGTQVTVSS | low polyreactivity |
| QVQLVESGGGLVQAGGSLRLSCAASGSIFLQNAMGWYRQAPGKERELVAAITNGGSTNYADSVKGRFTISRDNAKNTVYLQMNSLKPEDTAVYYCAVVRSYRGINDYWGQGTQVTVSS | low polyreactivity |
| QVQLVESGGGLVQAGGSLRLSCAASGSIFLSNAIGWYRQAPGKERELVADIDWTGGDTYYADSVKGRFTISRDNAKNTVYLQMNSLKPEDTAVYYCASDYGYRNLLTEYGYWGQGTKVTVSS | low polyreactivity |
| QVQLVESGGGLVQAGGSLRLSCAASGSIFLTNAMGWYRQAPGKERELVAAIRSGGSTSYADSVKGRFTISRDNAKNTVYLQMNSLKPEDTAVYYCNAESDYRNYKVHPSGIYEYWGQGTQVTVSS | low polyreactivity |
| QVQLVESGGGLVQAGGSLRLSCAASGSIFLTNAMGWYRQAPGKEREMVAAITLSGGITYYADSVKGRFTISRDNAKNNVYLQMNILKPEDTAVYYCAADVPGGIGNGGGYDYWGQGTQVTVSS | low polyreactivity |

| Sequence | polyreactivity (PSR sort gate) |
| --- | --- |
| QVQLVESGGGLVQAGGSLRLSCAASGSIFLTYAMGWYRQAPGKESELVAAISSGDSTNYTDSVKGRFTISRDNAKNTVYLQMNSLKPEDTAVYYCAADLTYTMDHWGQGTQVTVSS | low polyreactivity |
| QVQLVESGGGLVQAGGSLRLSCAASGSIFLVNAKGWYRQAPGKERELVAAITWIGGSTYYADSVKGRFTISRDNAKNTVYLQMNSLKPEDTAVYYCAAYGKRLGGGGYYWGQGTQVTVSS | high polyreactivity |
| QVQLVESGGGLVQAGGSLRLSCAASGSIFLVNDMGWYRQAPGKERELVAAISYSGDSTYYADSVKGRFTISRDNAKNTVYLQMNSLKPEDTAVYYCAADVFIISYVAAWHVRIDEFEWGQGTQVTVSS | low polyreactivity |
| QVQLVESGGGLVQAGGSLRLSCAASGSIFLYNAMGWYRQAPGKERELVAAISASGGSTYYADSVKGRFTISRDNAKNTVYLQMNSLKPEDTAVYYCAAQYSDYDGFTWPLPPRYDYWGQGTQVTVSS | high polyreactivity |
| QVQLVESGGGLVQAGGSLRLSCAASGSIFLYNAMGWYRQAPGKERELVAAITWSTDRTYYADSVKGRFTISRDNAKNTVYVQMNSLKPEDTAVYYCNRLVNHIYVPRRDYWGQGTQVTVSS | low polyreactivity |
| QVQLVESGGGLVQAGGSLRLSCAASGSIFLYNAMGWYRQAPGKERELVATITYIGGRTYYADSVKGRFTISRDNAKNTVYLQMNSLKQEDTAVYYCAAEYYVISSPSFYEYDYWGQGTQVTVSS | low polyreactivity |
| QVQLVESGGGLVQAGGSLRLSCAASGSIFLYNTMGWYRQAPGKQRELVAALTYSGGSTYYADSVKGRFTISRDHAKNTVYLQMNSLKPEDTAVNYGNARHYSAYYSWGQGTLVTVSS | high polyreactivity |
| QVQLVESGGGLVQAGGSLRLSCAASGSIFLYYAMGWYRQAPGKVRALLAAISWDGGSTYYADSVKGRFTISRDNAKNTVYLQMNSLKPEDTAVYYCNKAPYYYLPHSLRYNYWGQGTQVTVSS | high polyreactivity |
| QVQLVESGGGLVQAGGSLRLSCAASGSIFMGNAMGWYRQAPGKERELVATITSSGSTSYADSVKGRFTISRDNAKNTVYVQMNSLKPEDTAVYYCNTDLFQYGRTSTIYYEYDYWGQGTQVTVSS | high polyreactivity |
| QVQLVESGGGLVQAGGSLRLSCAASGSIFNAYAMGWYRQAPGKERELVAVISRPGGSTYYADSVKGRFTISRDNAKNTVYLQMNSLKPEDTAVYYCNVYYPYKHRYYHLDYWGQGTQVTVSS | high polyreactivity |
| QVQLVESGGGLVQAGGSLRLSCAASGSIFNDNVMGWYRQAPGKERELVAGISRSGTRTYYADSVKGRFTISRDNAKNTVYLQMNSLKPEDTAVYSGAAAYGQARRYNGSQYGSWGQGTQVTVSS | high polyreactivity |
| QVQLVESGGGLVQAGGSLRLSCAASGSIFNDYGKAWYRQAPGKERDLVAAISASGGSTYYADSVKGRFTISRYNAKNPVYLQLNSLNPEDTAVYYCAAYYMGLYYLYVDALGYDYWGQGTQVTVSS | low polyreactivity |
| QVQLVESGGGLVQAGGSLRLSCAASGSIFNLNAMGWYIQAPGKERELVASISSDRSTYYADSVKGRFTISRDNAKNTVYLQMNSLKQEDTAVYYCNADSQLAFKQLSFDYWGQGTQVTVSS | low polyreactivity |
| QVQLVESGGGLVQAGGSLRLSCAASGSIFNLNAMGWYRQAPGKEREFVAGITYSAGRTYYADSVKGRFTISRDNAKNTVYLQMNSLKPEDTAVYYCAARIYSKFTSYGILDSWGQGTQVTVSS | high polyreactivity |
| QVQLVESGGGLVQAGGSLRLSCAASGSIFNLYAMGWYRQAPGKERELVAAINWSGGSTYYADSVKGRFTISRDNAKNTVYLQMNSLKPEDTAVYYCAADAYSTYYGYEGDYWGQGTQVTVSS | low polyreactivity |
| QVQLVESGGGLVQAGGSLRLSCAASGSIFNLYAMGWYRQAPGKEREMVAAISYSTGSTYYADSVKGRFTISRDNAKNTVYLQMTSLKPEDTAVYYCNAQEGILGWVLYDYWGQGTQVTVSS | high polyreactivity |
| QVQLVESGGGLVQAGGSLRLSCAASGSIFNPYDMGWYRQAPGKERELVAAIDWSGGSTYYADSVKGRFTISRDNAKNTVYLQMNSLKPEDTAVYYCNAESYQDTLFGADNDYDYWGQGTQVTVSS | low polyreactivity |
| QVQLVESGGGLVQAGGSLRLSCAASGSIFNQYAMGWHRQAPGKERELVAAISSDGGRTYYADSVKGRFTISRDNAKNTVYLQMNSLNPEDTAVYYCNKDVRPAYRWYDYWGQDTQVTVSS | low polyreactivity |
| QVQLVESGGGLVQAGGSLRLSCAASGSIFNRNAMGWYRQAPGKERELVAAITRRGGSTYYADSVKGRFTISRDNAKNTVYLQMNSLKPEDTAVYYCAAATRKTEYDYWGQGTQVTVSS | low polyreactivity |
| QVQLVESGGGLVQAGGSLRLSCAASGSIFNRYAMGCYRQATGKERELVAAINSRGGSTSYADSVKGRFTISRDIAKNTVYLQMNSLKPEDTAVYYCAADRGVNSYGYWGQGTQETVSS | high polyreactivity |
| QVQLVESGGGLVQAGGSLRLSCAASGSIFNRYAMGWYRQAPGKERELVAAIRSGDNTNYADSVKGRFTISRDNAKNTVYLQMNSLKPEDTAVYYCAKRTYYRSRTVGWGKMDYWGQGTQVTVSS | high polyreactivity |

Reference: the nanobody polyreactivity screen of Harvey et al. (2022)
